What was measured:
[1] = target: TGFβ3 (transforming growth factor beta 3) (UniProt P10600); experiment: A549 cell radioreceptor assay, inhibition of 125I-TGFβ3 binding to receptors
[2] = target: human TGFβ2 (transforming growth factor beta 2) (human) (UniProt P61812); experiment: cell-based or functional assay
[3] = target: TGFβ3 (transforming growth factor beta 3) (UniProt P10600); experiment: cell-based or functional assay
[4] = target: human TGFβ1 (transforming growth factor beta 1) (human) (UniProt P01137); experiment: cell-based or functional assay
[5] = target: human TGFβ1 (transforming growth factor beta 1) (human) (UniProt P01137); experiment: A549 cell radioreceptor assay, inhibition of 125I-TGFβ1 binding to receptors
[6] = target: human TGFβ2 (transforming growth factor beta 2) (human) (UniProt P61812); experiment: A549 cell radioreceptor assay, inhibition of 125I-TGFβ2 binding to receptors

Chain of TGFβ3 (transforming growth factor beta 3) (P10600 301-412 limits assumed): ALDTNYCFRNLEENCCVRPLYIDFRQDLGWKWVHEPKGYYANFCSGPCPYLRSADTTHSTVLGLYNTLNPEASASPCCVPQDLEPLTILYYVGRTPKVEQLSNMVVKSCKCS
Chain of human TGFβ2 (transforming growth factor beta 2) (human) (P61812 303-414): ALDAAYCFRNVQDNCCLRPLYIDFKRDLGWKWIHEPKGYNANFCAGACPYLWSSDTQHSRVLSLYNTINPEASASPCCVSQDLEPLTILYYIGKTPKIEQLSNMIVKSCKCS
Chain of human TGFβ1 (transforming growth factor beta 1) (human) (P01137 279-390 limits assumed): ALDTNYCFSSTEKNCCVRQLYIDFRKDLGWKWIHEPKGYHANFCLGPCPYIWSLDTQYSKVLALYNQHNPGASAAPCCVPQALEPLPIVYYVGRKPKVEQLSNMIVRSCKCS

**Q.** For “mouse monoclonal antibody from Genzyme (Mouse anti-TGF β1,2,3; J.R. Dasch et al.)”, which IC50 [1] is on record?
**A.** The IC50 was 0.03 nM.

**Q.** And the TF1 cell proliferation assay IC50 (nM IgG) [2]?
**A.** Its TF1 cell proliferation assay IC50 (nM IgG) is 10 nM.

**Q.** What about the TF1 cell proliferation assay IC50 (nM IgG) [3] of the same substance?
**A.** The TF1 cell proliferation assay IC50 (nM IgG) was 0.1 nM.

**Q.** And the TF1 cell proliferation assay IC50 (nM IgG) [4]?
**A.** Its TF1 cell proliferation assay IC50 (nM IgG) is 1.5 nM.

**Q.** What about the IC50 [5] of the same substance?
**A.** Its IC50 is 0.55 nM.

**Q.** And the IC50 [6]?
**A.** Its IC50 is 0.5 nM.
